Test results taken from patent US7291458B2, “Leptin-mediated gene-induction” (Vlaams Interuniversitair Instituut Voor Biotechnologie VZW, priority 1998, dated 2007).

Key:
PC12-LR8 cells = test: Northern blot analysis of gene induction in non-differentiated PC12-LR8 cells; assay type: cell-based, rat; conditions: cycloheximide from 30 minutes before induction for 8.5 hours; 24 hours post induction
Procedure: PC12-LR8 cells were treated with leptin (L), forskolin (F), or a combination of both (F/L) for the indicated length of time. Hybridization with the mouse b-actin probe was used as a control. NI stands for non-induced control cells. Sizes of transcripts are shown on the right. Exposure times to Biomax MS films were 5.5 days for LIP-I and LIP-II, and 1 day for the corresponding b-actin blot, all at −80° C.
FIG. 6A. Induction patterns of Reg I, HIP-I and peripherin after a 12 hours stimulation with forskolin (F), leptin (L), forskolin plus leptin (F/L), hyper-IL-6 (H) or forskolin plus hyper-IL-6 (F/H). Untreated cells were analyzed as a control (NI). Exposure times to BioMax MS films for Reg I, HIP-I and b-actin were 4 days, 5 days and 3 hours, respectively; and in a separate experiment for peripherin and b-actin, 16 hours and 2 days.
FIG. 6B Induction patterns of PAP I, PAP III, MT-II, Fnk, MRF-1, SOCS-3 and STAT-3 after stimulation with leptin (L) or hyper-IL-6 (H), compared to non-treated control cells (NI). In all cases stimulation was for 12 hours, with the exception of PAP III where stimulation was for 24 hours. b-actin hybridization patterns are shown as control. Exposure times to BioMax MS films at −80° C. were 16 hours for PAP I and 1 hour for b-actin; 4 days for PAP III and 1 hour for b-actin; 3 days for MT-II and Fnk, and2 days for b-actin; 3 days for MRF-1, 2.5 days for SOCS-3 and2 days for b-actin; and 16 hours for STAT-3 and 3 hours for b-actin.
FIG. 8A. Northern blot analysis of the immediate early response genes. PC12-LR8 cells were left untreated (NI: non induced), or were treated with forskolin (F), leptin (L) or a combination of both (F/L) for the indicated time points. Exposure times to BioMax MS films for the different transcripts were Fnk: 6 days, MT-II: 5 days, MRF-1: 6 days, SOCS-3: 14 hours, STAT-3: 14 hours, b-actin: 5 hours.
FIG. 8B. Immediate early response gene-set: early kinetics. PC12-LR8 cells were treated with leptin alone (L) or with a combination of leptin and forskolin (F/L) for the indicated length of time. Exposure time to BioMax MS films were: Fnk: 3 days, MT-II: 3 days, MRF-1: 3 days, SOCS-3: 2.5 days, STAT-3: 2.5 days, b-actin: 1 hour.
FIG. 8C. Northern blot analysis of the late target genes. PC12-LR8 cells were left untreated (NI), or were treated with forskolin (F), leptin (L) or a combination of both (F/L) for the indicated length of time. Exposure times to BioMax MS films were: Ann VIII: 6 days, PAP I: 14 hours, Squalene Epoxidase: 5 days, UGT: 5 days, b-actin: 14 hours.
PC12 cells were cultured in RPMI 1640 medium with glutamax-I (GibcoBRL) containing 10% heat-inactivated foetal calf serum (iFCS) and gentamycin (50 μg/ml). The cells were treated with medium alone or supplemented with 100 ng/ml of mouse leptin (R&D Systems), with forskolin (Sigma) at a concentration of 10 μM or with a combination both, unless otherwise indicated.
Total RNA was prepared from PC12 cells using RNeasy™ method (Qiagen). RNA (10 μg) was separated on a 1.5% agarose,6% formaldehyde gel, transferred to a nylon membrane (Zeta-Probe GT Genomic, Bio-Rad), and cross-linked using UV radiation. The filters were hybridized for one hour at 68° C. in ExpressHyb™ solution (Clontech) with [^32P]dCTP-labeled DNA-probes and washed 3 times with 2×SSC, 0.05% SDS at room temperature and twice in 0.1×SSC, 0.1% SDS at 50° C. Autoradiographs were obtained by exposing the blots to BioMax MS film (Kodak) with intensifying screens at −70° C. All Northern blots were normalized by hybridization using a b-actin probe.

ob/ob mice = test: Gene expression in leptin treated ob/ob mice (Northern blot); assay type: in vivo; conditions: 100 μg/mouse intraperitoneally, 5 hours after treatment
Procedure: Leptin deficient ob/ob mice were left untreated (−) or were treated with leptin (100 μg; +) intraperitoneally. Mice were killed five hours after treatment. Northern blot analysis of MT-II and Fnk in liver and PAP I expression in jejunum is shown. Hybridization with the mouse b-actin probe was used as a control and is shown below. Exposure times to BioMax MS films were 4 hours, 3 days, 4 hours and 8 hours for MT-II, Fnk, PAP I and b-actin respectively.
In order to assess the value of our in vitro model system for obesity, we investigated the regulation by leptin of a subset of the identified genes in vivo. Recombinant human leptin (R&D Systems) was administered intraperitoneally to leptin deficient ob/ob mice in a single dose of 100 μg leptin /mouse. Mice were killed by cervical dislocation 5 hours after treatment and total RNA was isolated from liver and jejunum. Northern blot analysis was performed using respectively MT-II, Fnk and PAP I as probe (FIG. 9).
Specific pathogen-free female C57BL/6J-Lep^ob mice, 9 weeks old at the beginning of the experiment further referred to as ob/ob were obtained from The Jackson Laboratory (Maine, USA). […] The endotoxin content of the antibody was 0.07 ng/mg protein, as assessed by a chromogenic Limulus amebocyte lysate assay (Coatest, Chromogenix, Stockholm, Sweden). […]

[1] = system: rat Pancreatitis Associated Protein I promoter; test: pGL3-rPAPluc reporter in PC12-LR8 cells; assay type: cell-based; conditions: rPAP I reporter
Procedure: (§1) FIGS. 1C and 1D. Analysis of b-NGF and forskolin co-stimulation on leptin-induced POMC luciferase (C) or rPAP luciferase activity (D). PC12-LR8 cells were transiently transfected with pGL3-hPOMCluc or pGL3-rPAPluc reporter and treated after two days with forskolin (F: 10 μM), leptin (L: 100 ng/ml), and rat b-NGF (N: 1 ng/ml) as indicated or were left untreated (NI). 24 hours after treatment, cells were lysed and assayed for luciferase activity.
(§2) Leptin responsiveness in PC12 cells was further investigated using a clone stably expressing the long isoform of the mouse leptin receptor (PC12-LR8, see below). After transfection of PC12-LR8 with a reporter construct based on the human POMC (proopiomelanocortin) promoter (pGL3-POMCluc) (FIG. 1 portion C), or a reporter construct based on the rat Pancreatitis Associated Protein I promoter (See below) (FIG. 1 portion D), leptin induced luciferase activity was measured. […]
(§3) Luciferase activity was measured in transfected cells by chemiluminescence. […] 70 μl of luciferase substrate buffer (20 mM Tricine; 1.07 mM (MgCO3)4Mg(OH)25H2O; 2.67 mM MgSO4; 0.1 mM EDTA; 33.3 mM DTT; 270 μM Coenzyme A (lithium salt); 470 μM Luciferin (Duchefa); 530 μM ATP, final pH 7.8) was added to 100 μl of cell lysate and measured for 5 seconds by TopCount.NXT Chemiluminescence Counter (Packard).

[2] = system: human POMC (proopiomelanocortin) promoter; test: pGL3-POMCluc reporter in PC12-LR8 cells; assay type: cell-based, rat
Procedure: as §1, §2, §3

In the case of `C[C@@H]1C[C@@H]([C@H](O)CC2CC(=O)NC(=O)C2)C(=O)[C@@H](C)C1` [cycloheximide, reference compound], the “rPAP I and Annexin VIII mRNA expression” value (PC12-LR8 cells) is reported as “strongly reduced expression”.

For “Recombinant human leptin: Recombinant human leptin (R&D Systems) administered intraperitoneally to mice”, the “MT-II and Fnk mRNA expression in liver” value (ob/ob mice) was “clear induction” and the “expression of PAP I in jejunum” value (ob/ob mice) was “downregulated”.

B1: b-NGF: recombinant rat b-nerve growth factor (protein, UniProt P25427 122-241, looked up)
Beta-nerve growth factor: SSTHPVFHMGEFSVCDSVSVWVGDKTTATDIKGKEVTVLGEVNINNSVFKQYFFETKCRAPNPVESGCRGIDSKHWNSYCTTTHTFVKALTTDDKQAAWRFIRIDTACVCVLSRKAARRG
With B1 the “co-stimulation of leptin induced luciferase activity” value ([1]; b-NGF 1 ng/ml) was “mimicked”, the “combined b-NGF and forskolin effects on leptin induced luciferase activity” value [1] was “additive” and the “combined b-NGF and forskolin effects on leptin induced luciferase activity” value [2] was “additive”. For the same molecule, the “co-stimulation of leptin induced luciferase activity” value ([2]; b-NGF 1 ng/ml) was “mimicked”.
